The results in this text go back to the Immune Epitope Database (IEDB).

Experiment [1] deals with HLA-B*58:01. Put plainly: IEDB peptide-MHC binding, purified MHC/direct/fluorescence; filed as Kd, often an IC50 or EC50 that approximates it; ≥ and ≤ were set here for values at or beyond the usual limits of such assays.
The target of experiment [2] is HLA-B*27:05. The description is as above.
Experiment [3] addresses HLA-B*35:01. Described as above.
Experiment [4] deals with HLA-A*31:01. The experiment is described as above.
Experiment [5] deals with HLA-A*02:01. The experiment is described as above.
Experiment [6] addresses HLA-A*03:01. The description is as above.
The target of experiment [7] is HLA-B*44:02. Described as above.
Experiment [8] addresses HLA-A*01:01. The experiment is described as above.
For experiment [9], the target named is HLA-A*26:01. Described as above.
The target of experiment [10] is HLA-A*11:01. Described as above.
Experiment [11] deals with HLA-B*08:01. The experiment is described as above.
Experiment [12] concerns the target HLA-B*15:01. Described as above.
Experiment [13] concerns the target HLA-B*40:01. The description is as above.
For experiment [14], the target named is HLA-B*07:02. The experiment is described as above.
Experiment [15] deals with HLA-A*69:01. The experiment is described as above.
Experiment [16] addresses HLA-A*30:01. Described as above.
Experiment [17] addresses HLA-A*24:03. The description is as above.
For experiment [18], the target named is HLA-C*03:03. The description is as above. Particulars: source organism: Chelativorans sp. BNC1.
The target of experiment [19] is HLA-C*15:02. Described as above.
In experiment [20] the target is HLA-B*57:01. Described as above.
In experiment [21] the target is HLA-B*18:01. Described as above.
Experiment [22] concerns the target HLA-C*14:02. Described as above. Conditions: source organism: Burkholderia mallei SAVP1.
Experiment [23] has as its target HLA-A*26:02. The description is as above.
Experiment [24] deals with HLA-B*46:01. Nature of the experiment: IEDB peptide-MHC binding, purified MHC/competitive/fluorescence; filed as Kd, often an IC50 or EC50 that approximates it; ≥ and ≤ were set here for values at or beyond the usual limits of such assays. Particulars: source organism: Yellow fever virus.
In experiment [25] the target is HLA-A*11:01. The description is as above.
Experiment [26] addresses HLA-B*46:01. Nature of the experiment: IEDB peptide-MHC binding, purified MHC/direct/fluorescence; filed as Kd, often an IC50 or EC50 that approximates it; ≥ and ≤ were set here for values at or beyond the usual limits of such assays.
Experiment [27] concerns the target HLA-B*08:02. Described as above.
Experiment [28] deals with HLA-B*48:01. The experiment is described as above.
Experiment [29] has as its target HLA-A*23:01. Nature of the experiment: IEDB peptide-MHC binding, purified MHC/competitive/fluorescence; filed as Kd, often an IC50 or EC50 that approximates it; ≥ and ≤ were set here for values at or beyond the usual limits of such assays. Conditions: source organism: Vibrio cholerae 2740-80.
The target in experiment [30] is HLA-B*15:17. Nature of the experiment: IEDB peptide-MHC binding, purified MHC/direct/fluorescence; filed as Kd, often an IC50 or EC50 that approximates it; ≥ and ≤ were set here for values at or beyond the usual limits of such assays. Conditions: source organism: Entamoeba histolytica.
For experiment [31], the target named is HLA-A*68:02. The experiment is described as above. Conditions: source organism: Entamoeba histolytica.
The mark [32] stands for this setting: source organism: Salmonella enterica.
The mark [33] stands for this setting: source organism: Vibrio cholerae.
Setting [34] is: source organism: Orthohantavirus hantanense.
[35] abbreviates: source organism: Aggregatibacter actinomycetemcomitans.
The mark [36] stands for this setting: source organism: Pseudomonas putida.
The mark [37] stands for this setting: source organism: Yellow fever virus.
The mark [38] stands for this setting: source organism: Yellow fever virus strain Ghana/Asibi/1927.
Where [39] appears, read: source organism: Vibrio vulnificus.
Where [40] appears, read: source organism: Entamoeba histolytica.

In the case of AHSKAETEA, the Kd in experiment [1] (setting [32]), in experiment [2] (setting [32]), in [3] (source organism: Salmonella enterica subsp. enterica serovar Typhimurium), in [4] (setting [32]), in experiment [5] (setting [32]) and in experiment [6] (setting [32]) was at least 20 µM each time. The Kd in experiment [7] (setting [32]), in experiment [8] (setting [32]), in [9] (setting [32]), in [10] (setting [32]), in experiment [11] (setting [32]) and in [12] (setting [32]) was at least 20 µM throughout. Moreover, the Kd in experiment [13] (setting [32]), in [14] (setting [32]) and in experiment [15] (setting [32]) was at least 20 µM in each case.
With WAGIWGGKL, the Kd in [1] (setting [33]) is at least 20 µM; in [2] (setting [33]) it was at least 20 µM; in experiment [3] (setting [33]) it was 0.342 µM; in [4] (setting [33]), at least 20 µM; in [5] (setting [33]), at least 20 µM; in experiment [6] (setting [33]), at least 20 µM. For the same sequence, the Kd in experiment [7] (setting [33]), in experiment [8] (setting [33]), in experiment [9] (setting [33]), in [10] (setting [33]), in experiment [11] (setting [33]) and in [12] (setting [33]) was at least 20 µM in each case. The Kd in [13] (setting [33]) is at least 20 µM; in experiment [14] (setting [33]) it was 13 µM; in [15] (setting [33]), 0.242 µM.
RLNLKTSFH: the values for the Kd in [6] (setting [34]), in [16] (source organism: Sapporo rat virus) and in experiment [10] (setting [34]) were 0.407 µM, 0.1 µM and 1.35 µM, respectively.
Consider EYVGKTVWF, for which the Kd in experiment [16] (source organism: West Nile virus SPU116/89) was at least 20 µM.
Turning to TTRAWFDKK, the Kd in experiment [1] (setting [35]) was at least 20 µM; in [2] (setting [35]), at least 20 µM; in experiment [4] (setting [35]), 0.0607 µM; in [5] (setting [35]), at least 20 µM; in [6] (setting [35]), 2.99 µM; in experiment [16] (setting [35]), 0.00023 µM. The Kd is at least 20 µM in experiment [8] (setting [35]); at least 20 µM in experiment [9] (setting [35]); at least 20 µM in experiment [17] (setting [35]); 0.127 µM in [10] (setting [35]); at least 20 µM in [11] (setting [35]); at least 20 µM in [12] (setting [35]). Besides, the Kd in [13] (setting [35]), in experiment [14] (setting [35]) and in experiment [15] (setting [35]) was at least 20 µM each time.
Consider WALDVPMYF, for which the Kd in experiment [1] (source organism: Aurantimonas manganoxydans) is 0.0036 µM; in experiment [18], at most 0.001 µM; in [19] (source organism: Chelativorans sp. BNC1) it was 0.179 µM; in experiment [20] (source organism: Brucella suis 1330), 0.034 µM.
Regarding WWLEYTASF, the results for the Kd in experiment [21] (source organism: Burkholderia mallei ATCC 23344), in [19] (source organism: Burkholderia mallei SAVP1) and in [22] were 0.068 µM, at least 20 µM and 0.077 µM, respectively.
In the case of ETLETLLLL, the Kd in [23] (source organism: Dengue virus 2 Thailand/16681/84) was found to be 0.055 µM.
Turning to HTAEIQQFF, the Kd in experiment [3] (setting [36]) was 0.171 µM; in [4] (setting [36]), 1.15 µM; in experiment [8] (setting [36]), 0.67 µM; in [9] (setting [36]), 0.00541 µM; in [12] (setting [36]), 0.0906 µM; in experiment [15] (setting [36]), 0.0328 µM.
Turning to SGIDTNAYY, the Kd in experiment [9] (source organism: West Nile virus) and in experiment [23] (source organism: West Nile virus strain PTRoxo) was at least 20 µM throughout.
On to EAMDTISVF, for which the Kd in experiment [24] was 0.53 µM; in [23] (setting [37]) it was at most 0.001 µM.
With TLYCVHQR, the dissociation constant Kd in experiment [25] (source organism: Human immunodeficiency virus 1) came to 0.111 µM.
As to AIHPFALLL, the Kd in experiment [2] (setting [38]), in experiment [4] (setting [38]), in [26] (setting [38]), in experiment [7] (setting [38]), in experiment [8] (setting [38]) and in experiment [27] (setting [37]) was at least 20 µM in each case. Besides, the Kd was 0.099 µM in experiment [19] (setting [37]); at least 20 µM in [12] (setting [38]); at least 20 µM in [28] (setting [38]); at least 20 µM in experiment [20] (setting [38]); at least 20 µM in experiment [14] (setting [38]).
As for FVQGVIWNI, the Kd in experiment [29] came out at 0.0365 µM.
Regarding QSPQPVRVK, the Kd in experiment [1] (setting [39]) was at least 20 µM; in experiment [2] (setting [39]) it was at least 20 µM; in [5] (setting [39]), at least 20 µM; in experiment [6] (setting [39]), 19.3 µM; in [16] (setting [39]), 3.75 µM; in experiment [8] (setting [39]), at least 20 µM. Besides, the Kd was at least 20 µM in experiment [9] (setting [39]); at least 20 µM in [17] (setting [39]); 12.2 µM in experiment [10] (setting [39]); at least 20 µM in [11] (setting [39]); at least 20 µM in [12] (setting [39]); at least 20 µM in experiment [13] (setting [39]). Further, the Kd in [14] (setting [39]) and in experiment [15] (setting [39]) was at least 20 µM throughout.
As for DFGYATMAK, the Kd in [1] (setting [40]) is at least 20 µM; in experiment [2] (setting [40]), at least 20 µM; in [4] (setting [40]), at least 20 µM; in [5] (setting [40]), at least 20 µM; in [6] (setting [40]), 1.6 µM; in [21] (setting [40]) it was at least 20 µM. For the same sequence, the Kd in experiment [26] (setting [40]), in [8] (setting [40]), in experiment [30], in [9] (setting [40]), in experiment [31] and in experiment [27] (setting [40]) was at least 20 µM throughout. Also, the Kd in experiment [10] (setting [40]) is 0.836 µM; in [11] (setting [40]) it was at least 20 µM; in [12] (setting [40]) it was at least 20 µM; in [13] (setting [40]), at least 20 µM; in [28] (setting [40]) it was at least 20 µM; in [23] (setting [40]), at least 20 µM. Further, the Kd in experiment [20] (setting [40]) and in experiment [14] (setting [40]) was at least 20 µM each time.
As for RTLASGLIY, the Kd in experiment [25] (source organism: Yersinia pestis Nepal516) came out at 0.0673 µM.

The term Kd denotes the concentration at which binding is half-saturated.
